# Source: patent US20240279344A1 (CDR LIFE, published 2024)
# Biological target: T1, HLA-A2/MAGE-A4 complex, recombinant (HLA-A*02:01 extracellular domain, human b2m, MAGE-A4 peptide 230-239 …) (human, UniProt P04439 25-299 at identity 0.94); P61769 21-119)
# T1 construct: also called MAGE-A4 pMHC; MAGE-A4/HLA-A2 complex
# Assay: phage display biopanning and screening
row,Binder,binding result
1,"M0861 scFv (scFv, Rabbit scFv identified by phage display) scFv: QSVKESGGRLVTPGTPLTLTCTVSGFSLSNYAMSWVRQAPGKGLEYIGIVSSGGTTYYASWAKGRFTISKTSTTVDLKITSPTTEDTATYFCAKDLYYGPTTYSAFNLWGQGTLVTISSGGGGSGGGGSGGGGSGGGGASELVLTQPASVQVNLGQTVSLTCTADTLSRSYASWYQLKPGQAPVLLIYRDTSRPSGVPDRFSGSSSGNTATLTISGAQAGDEGDYVCATSDGSGSNFQLFGGGTQLTVTG",binds
2,"M0735 (VHH, Llama-derived VHH) VHH: EVQLVESGGGLVQAGGSLRLSCAASGLTFRRYTMGWFRQAPGKEREFVAAIVSSDSTNYADSVKGRFTISRDNAKNTVYLEMNSLKPDDTCVYYCAARNSLSLYVSNLGSRYDYWGQGTQVTVSS",binds
3,"M0866 scFv (scFv, Rabbit scFv identified by phage display) scFv: QSVKESGGRLVTPGTPLTLTCTASGFTISSSAISWVRQAPGKGLEYIGIIRSGGTTDYASWAKGRFAISKTSTTVDLKITSPTTEDTATYFCARDPPYITSTYFDLWGQGTLVTVSSGGGGSGGGGSGGGGSGGGGASELVLTQPQSVSGSLGQTVSISCKRARDSVESYDVHWYQQHPGKTPTIVIYKDDQRPSGVPDRFSGSIDSTSNSASLTITGLLAEDEADYFCQSFDGDAVVFGGGTQLTVTG",binds
4,"M0863 scFv (scFv, Rabbit scFv identified by phage display) scFv: PEQLMESGGGLVTPGGVLTLTCTASGFSFSSYGVNWVRQAPGKGLEWIGFIFGDGTTYYANWAKGRFTISKTSTTVDLKMTSPTTEDTATYFCARDGYGGYDYIINLWGQGTLVTVSSGGGGSGGGGSGGGGSGGGGASAQVLTQTPASVSAAVGGTVSISCQSSQSVVNNNWLAWYQQKPGQPPKLLIYKASTLESGVPSRFKGSGSGTQFTLTISGVQADDAATYYCQGAYSGNIYYNAFGGGTEVVVK",binds
5,"M0862 scFv (scFv, Rabbit scFv identified by phage display) scFv: PEQLMESGGGLVTPGGVLTLTCTASGFSFSSYGVNWVRQAPGKGLEWIGFIFGDGTTYYANWAKGRFTISKTSTTVDLKMTSPTTEDTATYFCARDGYGGYDYIINLWGQGTLVTVSSGGGGSGGGGSGGGGSGGGGASAQVLTQTPASVSAAVGGTVSISCQSSQSVVNNNWLAWYQQKPGQPPKLLIYKASTLESGVPSRFKGSGSGTQFTLTISGVQADDAATYYCLGEFSCSSADCHAFGGGTELEIL",binds
6,"M0859 scFv (scFv, Rabbit scFv identified by phage display) scFv: QSVKESGGRLVTPGTPLTLTCTVSGFSLSNYAMSWVRQAPGKGLEYIGIVSSGGTTYYASWAKGRFTISKTSTTVDLKITSPTTEDTATYFCAKDLYYGPTTYSAFNLWGQGTLVTISSGGGGSGGGGSGGGGSGGGGASELVLTQPQSVSGSLGQTVSISCKRARDNIEDYYVHWYQQHPGKTPTIVIHKDDQRPSGVPDRFSGSIDSTSNSASLTITGLLAEDEADYFCQSFDNDASPVFGGGTQLTVTG",binds
7,"M0860 scFv (scFv, Rabbit scFv identified by phage display) scFv: QSVKESGGRLVTPGTPLTLTCTVSGFSLSNYAMSWVRQAPGKGLEYIGIVSSGGTTYYASWAKGRFTISKTSTTVDLKITSPTTEDTATYFCAKDLYYGPTTYSAFNLWGQGTLVTISSGGGGSGGGGSGGGGSGGGGASELVLTQPQSVSGSLGQTVSISCKRARDNIEDYYVHWYQQYPGKTPTIVIYKDDQRPSGVPDRFSGSIDSTSNSASLTITGLLAEDEADYFCQSFDNNANVVFGGGTQLTVTG",binds
8,"M0858 scFv (scFv, Rabbit scFv identified by phage display) scFv: QSVEESGGRLVTPGTPLTLTCTVSGFSLSNYAMSWVRQAPGKGLEYIGIVSSGGTTYYASWAKGRFTISKTSTTVDLKITSPTTEDTATYFCAKDLYYGPTTYSAFNLWGQGTLVTVSSGGGGSGGGGSGGGGSGGGGASELVLTQPQSVSGSLGQTVSISCKRARNNIEDYYVHWYQQHPGRSPTIVIHKDDQRPSGVPDRFSGSIDSTSNSASLTITGLLAEDEADYFCQSFDNNANPVFGGGTQLTVTG",binds
9,"M0745 (VHH, Llama-derived VHH) VHH: EVQLVESGGGLVQAGGSLRLSCAVSGRRVSIYGMGWYRLAPGKQREMVASITSGGITTYADSVKGRFSISRDNAKNTVYLQMNSLKPEDTAVYYCNYHDYRVQGESWGQGTQVTVSS",binds
10,"M0740 (VHH, Llama-derived VHH) VHH: EVQLVESGGGLVQPGGSLRLSCLASGFPFSMYTMNWVRQAPGKGLEWVSAISSGGAVTTYADSVKGRFTISRDNAKNTLYLQMSSLKPEDTAVYYCESSNNRGQGTQVTVSS",binds
11,"M0864 scFv (scFv, Rabbit scFv identified by phage display) scFv: QSVKESGGGLVTPGTPLTLTCTVSGFSLSTYAISWVRQAPGKGLEWIGFIDTVDSAYYASWAKGRFTISKTSSTTVDLKMTSPTTEDTATYFCAKLRYGDYGDYTLWGQGTLVTVSSGGGGSGGGGSGGGGSGGGGASELVMTQTPSPVSGAVGGTVTIKCQASQNIYSYLAWYQQKPGQPPKLLIYKASTLASGVPSRVKGSGSGTEYTLTISGVQAADAATYYCQCTYYDSNTFGGGTEVVVK",binds
12,"M0741 (VHH, Llama-derived VHH) VHH: EVQLVESGGGAVQAGGSQRLSCTVSGRPFTKYAMGWFRQPPEKEREFVATSTWEGSTYYADSVKGRFTISRDNANNIIDLQMNTLKPEDTAVYFCAASNTYNADTTYYAKSTAFNFWGQGTQVTVSS",binds
13,"M0865 scFv (scFv, Rabbit scFv identified by phage display) scFv: PAALMESGGRLVTPGTPLTLTCTVSGIDLSTFAMTWVRQAPGKGLEWLGIINTGGSAYYTSWAKGRFTISRTSTTVDLKITSPTTEDTATYFCARGDWSSATDLWGQGTLVTISSGGGGSGGGGSGGGGSGGGGASDPDMTQTPSSVSAAVGGTVTINCQASQSVYDNKVLAWYRQKPGQPPKLLIYKASTLASGVPSRFKGRGSGTQFTLTISGVQADDAATYYCLGEFSCSSADCHAFGGGTELEIL",binds
14,"M0734 (VHH, Llama-derived VHH) VHH: EVQLVESGGGLVQAGGSLRVSCAASGLTFSNYAMGWFQQAPGKEREFVAGISWSGVSTYYADFVKGRFTISRDNAKNTVYLQMNSLKPEDTAVYYCAADNRRYSRGTSISTWRSDYDYWGQGTQVTVSS",binds
15,"M0738 (VHH, Llama-derived VHH) VHH: EVQLVESGGGLVEAGVSLRLSCAASGRTSENFAMGWFRQAPGNEREFVAAITRNHRTFYKESVKDRFTISRDDAKNTVYLEMNNLVPDDTAVYTCAAKFDPYASASSYYTGYYYWGQGTQVTVSS",binds
16,"M0737 (VHH, Llama-derived VHH) VHH: EVQLVESGGGLVQRGDSRRLSCAASGRPFSSFAMGWFRQAPGKEREFVAGISRSAGNTDYSDSVKGRFTISRDNAKNTVYLELNNLTPEDTAVYYCAAQIAIGTGSVFQSNTQYMYWGQGIQVTVSS",binds
17,"M0744 (VHH, Llama-derived VHH) VHH: EVQLVESGGGLVQPGGSLRLSCAASGSIFSINDMDWYRQAPGKQRELVAAITRGGSTNYADSVKGRFTISRDNAKNTVYLQMNSLKPEDTAVYYCNAEVSTETTGWRTWRDYWGQGTQVTVSS",binds
18,"M0736 (VHH, Llama-derived VHH) VHH: EVQLVESGGGLVQAGGSLRLSCTVSGRTSSAFAMGWFRQAPGKEREFVAAINLTGGTTNYAESVKGRFTISRDNAKNTGYLGMSSLKPEDTAVYYCAGRNRWSEGREVAPSSYYYWGQGTQVTVSS",binds
